Tested on: MS2 coat protein
Experiment: apparent KD of MS2 coat protein; designed switch direction (-1 OFF switch, 1 ON switch): -1; higher = weaker reporter binding
Summary of the method: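 The reported apparent KD is a per-design median over clusters, from curve fits of normalised cluster fluorescence. Protein titrations used SNAP-549-labelled MS2 coat protein, doubled from 0.7 or 1.5 nM to 3 µM, in Tris-HCl pH 7.5 buffer with KCl, MgCl2, BSA, DTT, tRNA and Tween-20, with no input, 200 uM small-molecule ligand, or an oligonucleotide input. The RNA switches were transcribed on Illumina chips by stalled E. coli RNA polymerase.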

[1] = input ligand: microRNA oligo, concentration not stated
[2] = Eterna round: R95, input ligand: microRNA oligo, concentration not stated
[3] = Eterna round: R95, input ligand: FMN 200 uM
[4] = Eterna round: R95, input ligand: none

| Sequence | apparent KD of MS2 coat protein (input ligand: FMN 200 uM) [µM] | apparent KD of MS2 coat protein [1] [µM] | apparent KD of MS2 coat protein (input ligand: none) [µM] | apparent KD of MS2 coat protein [2] [µM] | apparent KD of MS2 coat protein [3] [µM] | apparent KD of MS2 coat protein [4] [µM] |
| --- | --- | --- | --- | --- | --- | --- |
| UCUCGCAGGCAAGGAUAUCCUACAUUGUUCUGGCCCGGGCAUGUUACAUGAGGAUCACCCAUGUGGGAGAAGGUGCGCCACGGC [Design 33] (Eterna round: R96, puzzle: Exclusion NG 2) | 0.196 | 0.175 | 0.1 | – | – | – |
| UGUGUGAGACAGGAUAUGCCGGUUGUAUUACUGGUAGAAGGGUCUACAUGAGGAUCACCCAUGUGGCCGGCCGG [Ex6 #82] (Eterna round: R97, puzzle: Exclusion 6) | 0.0731 | – | 0.0262 | – | – | – |
| UCGGCGCGAGGAUAUGCGGUUUGUGCUUCGGGCCCUCGCGUACAUGAGGAUCACCCAUGUAGAAGGCGCGCCGC [Apr-15 SS2-45] (puzzle: Exclusion 2) | – | – | – | 0.0752 | – | – |
| AUUAUAUAGGAAGGAUAUAGAAUAUUAUUUUAACAUGAGGAUCACCCAUGUAACCUUAUGUGUAGCUAGAAGGUCCAUUUAUUA [Title] (Eterna round: R96, puzzle: Exclusion NG 2) | – | 0.0956 | – | – | – | – |
| GAGUAGGUAGGAUAUACGAUAAUAUAGGGUAGAUAUAUAACACAUGAGGAUCACCCAUGUAGAAGGACCAUGAG [Mat - Exclusion 2 - Mod of my Tesla design - D62] (puzzle: Exclusion 2) | – | – | – | 0.0371 | 0.118 | 0.0351 |
| AUAUCCCGAGGAUAUACAUGAGGAUCACCCAUGUCGGGCCUCUGGCCUAAGGCCGAAAGUAGAAGGUGGGUUUC [JL Riri mod 11] (puzzle: Exclusion 3) | – | – | – | 0.126 | – | – |
| CACCGUUAGUGAGGAUAUCGUACAUGAGGAUCACCCAUGUAAUAAAUGAGAAUUUCGGAUGUAUGCGAGAAGGCACAAAUCGGC [Ostracism 40 - Jieux - Exclusion NG 2] (Eterna round: R96, puzzle: Exclusion NG 2) | 0.0371 | 0.0347 | 0.0452 | – | – | – |
| GAAUGAGAGCAGGAUAUCUUAUAAGUGUAUGAAAGAGAAGGGCUCACAUGAGGAUCACCCAUGUGGUCCUAGAU [jl-ex6-4.86 jandersonlee mod] (Eterna round: R97, puzzle: Exclusion 6) | 0.329 | – | 0.0417 | – | – | – |
| CAGGAUAGAGGAUAUACAUAGAUACAGAUUCGUGUGAUCCUACAUGAGGAUCACCCAUGUAGAAGGCUAUCCUG [Fiskers Ex 2 - 23] (Eterna round: R96, puzzle: Exclusion 2) | 0.082 | 0.392 | 0.587 | – | – | – |
| UUGGUUGUGGUAGGAUAUCCGUUGGAAACCUUCGGAGAAGGACCACAGUCACUGGGUCUUUGUCUGGUGGACGGUUUCGACCGU [pwkr exNG1 F6.23] (Eterna round: R96, puzzle: Exclusion NG 1) | 0.202 | 0.281 | 0.559 | – | – | – |
| AGGGAGUGAGGAUAUACGAAAUAAAAAGAAGGAAAAAAAGAGUAGAAGGCACAUGAGGAUCACCCAUGUGAGAA [milkweed 12] (Eterna round: R96, puzzle: Exclusion 4) | – | 0.0169 | – | – | – | – |
| AGACGUGCAGUGCUCCUCCACAUGAGGAUCACCCAUGUCACUGAGGAUAUCUGCAGGUAACUGCUGGAGAAGGCAGAAAGAAUG [Atrien] (Eterna round: R96, puzzle: Exclusion NG 3) | 0.0819 | 0.0221 | 0.0295 | – | – | – |
| UAAAUUAUUGUAAGGAUAUCAGUCCCGAAAGGGACUGAGAAGGUACAUGAGGAUCACCCAUGUGAAAUAAGAAU [Mod of Zala 15 - Jieux - Brourd's Mod of Exclusion 4] (Eterna round: R97, puzzle: Brourd's mod of Exclusion 4) | 0.0531 | – | 0.0221 | – | – | – |
| UAAGCUACUGUCAGGAUAUCGUAAUUGGUGAACGACGAGAAGGGACAUGAGGAUCACCCAUGUCGAUGACUGGG [Eternabot (L2) Solution 97] (Eterna round: R97, puzzle: Brourd's mod of Exclusion 4) | 0.386 | – | 0.2 | – | – | – |
| GUGUACAGAGGAUAUACACGAAUCUAGCGAAGCUAGGUUUGACAUGAGGAUCACCCAUGUAGAAGGCUGUACAC [Dot plot directed A detuned for Vienna 1] (puzzle: Exclusion 2) | – | – | – | 0.0167 | – | – |
| UAUUAGCAAGCACGAUCCCACAUGAGGAUCACCCAUGUGCUCGUCUUAUAAGGUACUGUGACGAAAGUCACGGUACC [Sensor 3, v1 - 94] (puzzle: Sensor v3, turn-off variant 1) | – | – | – | 0.847 | 0.0642 | 0.0759 |
| GCAGCACAUGUAGGAUAUCUGCACGUUUAGUGCAGAGAAGGACAUGAGGAUCACCCAUGUAAUUAAGAUCAAUUAUUAAGCUGC [ENG1/3-C2] (Eterna round: R96, puzzle: Exclusion NG 1) | 0.178 | 0.0321 | 0.0442 | – | – | – |
| GAAAAGUGAGGAUAUUGUUUUUUUUUGAAAACGGGAGAGGGCAAGAAGGCACAUGAGGAUCACCCAUGUAAGGU [Alacar 2] (Eterna round: R97, puzzle: Exclusion 4) | 0.0664 | – | 0.0441 | – | – | – |
| CUCAUGUGAGGAUAUGUGAUCAACCUUCUAUAUAGAUGAUUACAGAAGGCACAUGAGGAUCACCCAUGUAGAUC [Ex4 - 3 - 23] (puzzle: Exclusion 4) | – | – | – | 0.0211 | – | – |
| UGAGUGCUGCGAGGAUAUACAUGAGGAUCACCCAUGUAAUCGUGUGAGGCUAUGCCUCACACGAAGUAGAAGGCGCAGUACUCU [Mat - Exclusion NG 2 - Mod of JL - D16] (Eterna round: R96, puzzle: Exclusion NG 2) | 0.00998 | 0.00833 | 0.00963 | – | – | – |
| ACAGUACAUGAGGAUCACCCAUGUGAGGAUAUAGUAGUAUGGGAGACCAUACUAAAGACUAGAAGGCGCGGGCA [Exclusion 1 S1] (Eterna round: R97, puzzle: Exclusion 1) | 0.0436 | – | 0.067 | – | – | – |
| UCACCGCAAGGAUAUACUUGCGGUGAUGCUCGAAACUUUCUACUUGAGGAUCACCCAAGUAGAAGGUGCGGUGA [jl-ex2.4.68 ViennaUCT mod] (Eterna round: R97, puzzle: Exclusion 2) | 0.0121 | – | 0.0131 | – | – | – |
| UCUUUGUUUGUGAGGAUAUCGGUGGGAUGGGUUGUCGAGAAGGCACAUGAGGAUCACCCAUGUGAGGGACAGCA [JR_BMEx4_Sub028] (Eterna round: R97, puzzle: Brourd's mod of Exclusion 4) | 0.0166 | – | 0.0162 | – | – | – |
| CCCAGUUACGUAGGAUAUUGUACAUGAGGAUCACCCAUGUAAUAAAUGAGGAUUUCGGGUGUCUACAAGAAGGACGGGAUAGGC [Ostracism 17 - Jieux - Exclusion NG 2] (Eterna round: R96, puzzle: Exclusion NG 2) | 0.186 | 0.0806 | 0.093 | – | – | – |
| GUCGUGCGGCAGUGCUGUACGAGUACAUGAGGAUCACCCAUGUAGGAUAUGGUUCGUUUUGCGUGCUAGAAGGGCGUGCGUUGG [Excl-NG3-LRO21] (Eterna round: R96, puzzle: Exclusion NG 3) | 0.0193 | 0.0163 | 0.0214 | – | – | – |

Source: the supplement of paper PMC9170038
